Test [1] has as its target mouse β2GPI (beta2-glycoprotein I) (mouse (endogenous in pooled BALB/c mouse serum)) (UniProt Q01339). Nature of the test: ELISA.
In test [2] the target is human β2GPI (beta2-glycoprotein I) (human (endogenous in pooled normal human serum)) (UniProt P02749). In words: ELISA.
Test [3] concerns the target domain V of human β2GPI (human) (UniProt P02749). In words: ITC.

human β2GPI (beta2-glycoprotein I) (human (endogenous in pooled normal human serum)), sequence (P02749 20-345): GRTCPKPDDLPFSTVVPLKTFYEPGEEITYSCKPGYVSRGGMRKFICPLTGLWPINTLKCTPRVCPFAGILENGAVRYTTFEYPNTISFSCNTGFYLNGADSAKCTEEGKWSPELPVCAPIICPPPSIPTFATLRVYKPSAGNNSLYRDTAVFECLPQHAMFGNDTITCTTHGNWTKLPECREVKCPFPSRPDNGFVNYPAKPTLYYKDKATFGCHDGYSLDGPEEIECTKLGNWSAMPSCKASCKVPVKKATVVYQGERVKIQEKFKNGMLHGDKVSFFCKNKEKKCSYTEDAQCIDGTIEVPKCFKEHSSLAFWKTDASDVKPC
mouse β2GPI (beta2-glycoprotein I) (mouse (endogenous in pooled BALB/c mouse serum)), sequence (Q01339 20-345): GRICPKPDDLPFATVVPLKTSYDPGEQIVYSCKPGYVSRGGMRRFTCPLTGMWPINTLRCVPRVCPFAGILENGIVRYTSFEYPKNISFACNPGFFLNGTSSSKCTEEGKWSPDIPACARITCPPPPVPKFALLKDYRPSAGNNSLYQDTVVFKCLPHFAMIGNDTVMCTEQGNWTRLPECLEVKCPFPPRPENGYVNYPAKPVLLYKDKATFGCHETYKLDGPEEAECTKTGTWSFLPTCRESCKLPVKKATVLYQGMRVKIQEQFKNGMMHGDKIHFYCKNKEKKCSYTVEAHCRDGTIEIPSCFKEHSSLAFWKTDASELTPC
domain V of human β2GPI (human), sequence (P02749 263-345): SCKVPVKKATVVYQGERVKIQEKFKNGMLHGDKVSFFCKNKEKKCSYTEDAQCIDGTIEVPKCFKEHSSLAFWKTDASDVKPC

With “Asn36/Asp mutant of mouse A1-A1 (from UniProt Q924X6 40-75; Q924X6 40-75)”, the IC50 was found to be 2.8 µM in test [1] and 2.5 µM in test [2].
Regarding “human A1, first ligand-binding module of ApoE receptor 2 (ApoER2) (domain or fragment)”, in test [3], the equilibrium dissociation constant (Kd) was 20 µM, the dH is -6.3 kcal/mol and the stoichiometry N was determined as 1.06.
Turning to human A1-A1, the IC50 in test [1] amounted to 3.1 µM; in test [2] it was 5 µM.
In test [3], “mouse A1, first ligand-binding module of ApoE receptor 2 (ApoER2) (domain or fragment)” registered a Kd of 26 µM, a dH of -5.5 kcal/mol and a stoichiometry N of 1.06.
For mouse A1-A1, the results for the IC50 in test [1] and in test [2] were 3 µM and 2.7 µM, respectively.

Source of the values: paper PMC4351136.
